From the supplement of paper PMC9170038

System: MS2 coat protein
Assay: apparent KD of MS2 coat protein; higher = weaker reporter binding
Conditions: Eterna round: R107
Summary of the method: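 Illumina sequencing clusters were used for on-chip transcription of designed RNA switches. Titration with SNAP-549-labelled MS2 coat protein followed, in twofold steps from 0.7 or 1.5 nM to 3 µM in 100 mM Tris-HCl pH 7.5, 80 mM KCl, 4 mM MgCl2, without or with constant ligand. Apparent KD is each design's median of fits to normalised cluster binding curves.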

[1] = input ligand: theophylline 20 uM
[2] = input ligand: theophylline 2 mM
[3] = input ligand: tryptophan 2.4 mM

In the case of “AUCUUUGGCGAUCUGGGAAAACCAGAUCGACGAGGACCGGUACGGCCGCCACUCGUGUAUAAUAUACAUGAGGAUCACCCAUGUA [#18 Tryptophan A Same State]”, the “apparent KD of MS2 coat protein” value (input ligand: arginine 13.2 mM) was 27.8 nM, the “apparent KD of MS2 coat protein” value [1] was 61.1 nM and the “apparent KD of MS2 coat protein” value [2] was 64.7 nM.

For “ACACAUGAGGAUCACCCAUGUAAAGUUGAAGGAGCGAUCAUUAGGUCAGGUAGGUCGCAGCACAUGAGGAUCACCCAUGUCGUGA [DOUBLE!!! :-D #2]”, the “apparent KD of MS2 coat protein” value (input ligand: arginine 13.2 mM) was 31.3 nM, the “apparent KD of MS2 coat protein” value (input ligand: none) was 96.1 nM and the “apparent KD of MS2 coat protein” value [1] was 85.5 nM. For the same sequence, the “apparent KD of MS2 coat protein” value [2] was 73.7 nM and the “apparent KD of MS2 coat protein” value [3] was 86.9 nM.

“GAGUAGAGGACGGCCGCCACUGAACAUGAGGAUCACCCAUGUCGUGAUCCGUUACCUAAAGAAGAUAGGACCGGGUCAUGUACUC [Exclusion Tryptophan B GF 19]” was tested, and the “apparent KD of MS2 coat protein” value (input ligand: arginine 13.2 mM) was 28.9 nM, the “apparent KD of MS2 coat protein” value [1] was 41.7 nM and the “apparent KD of MS2 coat protein” value [2] was 32.7 nM.

For “GGCAAAAGGUCGGCCGCCACUGUAGGAUGUGUUCUUUCACAUGAGGAUCACCCAUGUUGUUAUUAUAGGACCGGGAUUUUAGGAC [39MS split4]”, the “apparent KD of MS2 coat protein” value (input ligand: arginine 13.2 mM) was 20.6 nM, the “apparent KD of MS2 coat protein” value [1] was 31.7 nM and the “apparent KD of MS2 coat protein” value [2] was 23.4 nM.

With “UAAAACAUGAGGAUCACCCAUGUAAAAGAUACCAGAGUGAUGAUCCUCCCUUGGCAGCUUAACGCUGAUUGAUUACAAUCAGCGA [Mat - Same State Theophlline A - Mod of Eli - D21]” the “apparent KD of MS2 coat protein” value (input ligand: arginine 13.2 mM) was 75.4 nM, the “apparent KD of MS2 coat protein” value [1] was 124 nM and the “apparent KD of MS2 coat protein” value [3] was 53.3 nM.

In the case of “UAAUAAGUACCGGUCCUCAGAUCCUCAUGACGAGGACCGGUACGGCCGCCACUCGAAACAUGAGGAUCACCCAUGUAAUAAUAAC [Brourdmod03]”, the “apparent KD of MS2 coat protein” value (input ligand: arginine 13.2 mM) was 23 nM, the “apparent KD of MS2 coat protein” value [1] was 77 nM and the “apparent KD of MS2 coat protein” value [2] was 45.2 nM.

“ACAUGAGGAUCACCCAUGUGCAGCACGGAUACCAGCGUCCUAGUGCGCCCUUGGCAGCCGGACAUGAGGAUCACCCAUGUGUGGG [Exclusion Theophylline A GF30]” was tested, and the “apparent KD of MS2 coat protein” value (input ligand: arginine 13.2 mM) was 50.2 nM, the “apparent KD of MS2 coat protein” value [1] was 135 nM and the “apparent KD of MS2 coat protein” value [3] was 95.7 nM.

In the case of “GUCGCUGAGGGAAGGAGCGUGAAGACAUGAGGAUCACCCAUGUAGAGGCGCCGAAGGCGUUCGCAGGUAGGUCGCCCUCAGUGAC [#1 Same State - Arginine B Attempt #22 (HarryS)]”, the “apparent KD of MS2 coat protein” value (input ligand: arginine 13.2 mM) was 42.4 nM, the “apparent KD of MS2 coat protein” value (input ligand: none) was 19.3 nM and the “apparent KD of MS2 coat protein” value [1] was 23.2 nM. For the same sequence, the “apparent KD of MS2 coat protein” value [2] was 16.7 nM and the “apparent KD of MS2 coat protein” value [3] was 16.8 nM.

For “UGCGUACAUGAGGAUCACCCAUGUAUAGAUACCAGUCACCCAUGUGGCCCUUGGCAGCUAACAUGAGGAUCACUACAUGAGGAUC [Exclusion Theophylline A 3]”, the “apparent KD of MS2 coat protein” value (input ligand: arginine 13.2 mM) was 24.3 nM, the “apparent KD of MS2 coat protein” value [1] was 72.2 nM and the “apparent KD of MS2 coat protein” value [3] was 32.7 nM.

“CGUAUUACGAAAGUAGUACGUAGUUCGAGUCGAGGACCGGUACGGCCGCCACUCGGACAUGAGGAUCACCCAUGUAGCGAAAGCU [Tryptophan A 23]” was tested, and the “apparent KD of MS2 coat protein” value (input ligand: arginine 13.2 mM) was 68.2 nM, the “apparent KD of MS2 coat protein” value (input ligand: none) was 125 nM and the “apparent KD of MS2 coat protein” value [1] was 156 nM. For the same sequence, the “apparent KD of MS2 coat protein” value [2] was 161 nM and the “apparent KD of MS2 coat protein” value [3] was 72.4 nM.

With “UGGAAAGCACAUGAGGAUCACCCAUGUGAUACCAGCUGAAACUAAGGCCCUUGGCAGCACAUGGUACCAACCCUUUGGUAGUCCA [Vearedqu]” the “apparent KD of MS2 coat protein” value (input ligand: arginine 13.2 mM) was 10.9 nM, the “apparent KD of MS2 coat protein” value [1] was 19.9 nM and the “apparent KD of MS2 coat protein” value [3] was 10.3 nM.

With “ACAUGAGGAUCACCCAUGUUUGUUGUUCCUCGAGGACCGGUACGGCCGCCACUCGAACGAGUGGCGCGCGCGCGCGCGCGCGCGC [aMa]” the “apparent KD of MS2 coat protein” value (input ligand: arginine 13.2 mM) was 11.6 nM, the “apparent KD of MS2 coat protein” value (input ligand: none) was 13.3 nM and the “apparent KD of MS2 coat protein” value [1] was 36.4 nM. The “apparent KD of MS2 coat protein” value [2] was 16.4 nM and the “apparent KD of MS2 coat protein” value [3] was 12.6 nM.

With “AACUACUCGAGGUGAUCCUACGAGUGGCAACGAGGACCGGUACGGCCGCCACUCGAAUAAACAUGAGGAUCACCCAUGUACAAAU [T''-M'-T'-T-MS2 - Design 12]” the “apparent KD of MS2 coat protein” value (input ligand: arginine 13.2 mM) was 92.2 nM, the “apparent KD of MS2 coat protein” value [1] was 259 nM and the “apparent KD of MS2 coat protein” value [2] was 220 nM.

In the case of “UGACAGAUAACCGCUGGUGCUCUUGAGUUGCGAGGACCGGUACGGCCGCCACUCGACAACAUGAGGAUCACCCAUGUUGCGGGUC [Soleeror]”, the “apparent KD of MS2 coat protein” value (input ligand: arginine 13.2 mM) was 38.3 nM, the “apparent KD of MS2 coat protein” value (input ligand: none) was 146 nM and the “apparent KD of MS2 coat protein” value [1] was 89.5 nM. The “apparent KD of MS2 coat protein” value [2] was 146 nM and the “apparent KD of MS2 coat protein” value [3] was 85.1 nM.

With “UUUACAUGAGGAUCACCCAUGUGCCAUGAUACCAGACAUGAAAAUGUCCCUUGGCAGCAUGAGUGAUAUGCGUCGGAAACGACGC [Jundrov]” the “apparent KD of MS2 coat protein” value (input ligand: arginine 13.2 mM) was 499 nM, the “apparent KD of MS2 coat protein” value (input ligand: none) was 153 nM and the “apparent KD of MS2 coat protein” value [1] was 102 nM. The “apparent KD of MS2 coat protein” value [2] was 1210 nM and the “apparent KD of MS2 coat protein” value [3] was 194 nM.

With “CCAUAAGUACCGGUCCUCAGAUCCUCAUGACGAGGACCGGUACGGCCGCCACUCGAAACAUGAGGAUCACCCAUGUAAUAAUAUU [Brourdmod14]” the “apparent KD of MS2 coat protein” value (input ligand: arginine 13.2 mM) was 19.3 nM, the “apparent KD of MS2 coat protein” value [1] was 45.4 nM and the “apparent KD of MS2 coat protein” value [2] was 31.1 nM.
